Source: patent US20260209387A1, “SINGLE-DOMAIN ANTIBODY FOR INHIBITION OF NEUTROPHIL ELASTASE ACTIVITY” (UNIVERSITE DE LIEGE, priority 2023, published 2026)

Assays:
[1] = biological target: T1, porcine pancreatic elastase (pPE) (Sus scrofa, UniProt P00772); experiment: BLI binding to other serine proteases: pPE; settings: 50 nM protease
T1 construct: purchased Sigma
Description: (§1) The specificity of NbE201 for hNE was also investigated by BLI. Biotinylated NbE201 (10 μg/mL) was immobilized on streptavidin biosensors (SA, Sartorius) following provider's indications. The biosensors were then immersed in a 50 nM solution of a serine protease. The proteases tested were human cathepsin G (hCG), human proteinase 3 (hPR3), mouse pancreatic elastase (mPE), mouse neutrophil elastase (mNE) and porcine pancreatic elastase (pPE). hNE was used a positive control. The association and dissociation were measured for 70 s and 320 s respectively, in kinetic buffer (KB, Sartorius). The experiments were carried out at 30° C. in 384-wells black-bottom microplates in polypropylene (Greiner Bio-One, Belgium) and with orbital agitation (1000 rpm).

[2] = Urea-induced unfolding (intrinsic fluorescence, far UV-CD); format: physicochemical; settings: pH 7, 25° C.
Description: 1.11.1. Preparation of the samples. Samples of NbE201 were incubated overnight at 25° C. in the presence of increasing concentrations of urea (Sigma-Aldrich) in 0.05 M NaP buffer pH 7. The protein concentration was 0.2 mg mL-1. The denaturant concentration in each sample was determined from refractive index measurements (Pace, C. N., 1986, doi.org/10.1016/0076-6879 (86) 31045-0), using a R5000 hand refractometer from Atago (Tokyo, Japan). The same samples were used to measure both the intrinsic fluorescence and far ultraviolet circular dichroism (UV-CD) spectra. Blank samples (without the Nb) every 1 M urea were prepared to make a reference curve that was used to correct the contribution of (buffer+urea) for fluorescence and circular dichroism (CD) signal at each urea concentration.
1.11.2. Measurements of fluorescence and far-UV-CD signals/spectra. Intrinsic fluorescence spectra to monitor changes in the tertiary structure were recorded at 25° C. from 305 nm to 440 nm after excitation at 280 nm with 5 nm excitation and emission slits using a Cary Eclipse Fluorimeter (Agilent, Santa Clara, USA) equipped with a thermostatically controlled multi-cuvette holder and a 10*0.4 mm pathlength quartz micro cuvette. The voltage applied at the detector was 710 V. Data acquisition was made every 0.5 nm with a scan rate of 30 nm·min^−1.
Far UV-CD spectrum of the native and denatured states (i.e. in 9 M urea) were recorded from 190 nm to 260 nm in a 0.2 mm pathlength quartz cuvette at 25° C. […] were recorded with a 0.1 nm data interval, a data pitch of 0.1 nm, 2 s integration time, a bandwidth of 1 nm and a scanning speed of 50 nm/min. The unfolding transitions were monitored by far UV-CD at 207 nm in a 0.2 mm pathlength quartz cuvette. At each denaturant concentration, 37 data points were acquired with a 1 nm bandwidth, a reading frequency of 5 s and a 4 s integration time, and averaged. The measurements were carried out with Jasco J-810 spectropolarimeter, (JASCO, Lisses, France) equipped with a Peltier cell holder.
1.11.3. Data analysis. The intrinsic fluorescence spectra were fitted using a five parameter Weibull function (from software SigmaPlot 5.0) to determine the wavelength corresponding to the highest fluorescence intensity (λmax). The changes in fluorescence intensity at 337 nm were also used to monitor the unfolding transition. The transition curves obtained were analyzed based on a two-state (N ? U) model according to Dumoulin et al. (doi: 10.1110/ps.34602) and equation 1:
where x is the concentration in denaturant and a=(ΔG°NU(H2O)−m*[D])/RT, and yobs is the monitored signal (i.e. λmax, F337 nm or CD207 nm) at a given denaturant concentration, and YN and YU are the values of these signals for the native and denatured states, respectively in the absence of denaturant. ΔG°NU(H2O) is the difference in free energy between the folded and unfolded states at 25° C.; m is a measure of the dependence of the free energy on the denaturant concentration, and [D] is the denaturant concentration. p and q are the slopes of the pre- and post-unfolding baselines, respectively, R is the gas constant, and T is the absolute temperature. Cm, the denaturant concentration at the midpoint of the denaturation curve ([U]/[N]=1) is defined as ΔG°NU(H2O)/m.

human cathepsin G (hCG) = biological target: T2, human cathepsin G (hCG) (Homo sapiens, UniProt P08311); experiment: BLI binding to other serine proteases: hCG; settings: 50 nM protease
T2 construct: purchased Calbiochem
T2 sequence (P08311 21-244): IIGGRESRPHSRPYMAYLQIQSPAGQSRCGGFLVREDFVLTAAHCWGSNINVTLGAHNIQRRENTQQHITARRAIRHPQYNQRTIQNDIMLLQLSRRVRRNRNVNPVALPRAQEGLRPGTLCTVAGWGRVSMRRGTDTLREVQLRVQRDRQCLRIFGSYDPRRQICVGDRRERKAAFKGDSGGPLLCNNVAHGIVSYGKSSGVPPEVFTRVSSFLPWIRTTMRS
Description: as §1

hNE = biological target: T3, hNE (Homo sapiens, UniProt P08246); experiment: Affinity of NbE201 for hNE by BLI; format: binding
T3 construct: purchased Elastin Products Company (EPC)
T3 sequence (P08246 30-247): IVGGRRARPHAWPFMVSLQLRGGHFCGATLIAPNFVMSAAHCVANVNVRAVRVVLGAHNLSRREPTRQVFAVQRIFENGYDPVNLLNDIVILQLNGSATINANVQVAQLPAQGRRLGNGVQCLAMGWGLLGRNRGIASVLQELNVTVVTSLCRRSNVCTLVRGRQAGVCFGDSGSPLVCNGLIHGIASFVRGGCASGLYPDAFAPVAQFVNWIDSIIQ
Description: The affinity of NbE201 for hNE and mNE was measured by BLI with the Octet HTX machine using various settings. […] For hNE, the biotinylated NbE201 (0.5 μg·mL^−1) was immobilized on streptavidin biosensors (SA, Sartorius) following the provider's indications. Then, the biosensors were immersed in a solution of hNE at different concentrations (25-6.25-3.125-1.5163-0.753 nM). Association and dissociation kinetics were measured for 180 s and 300 s respectively, in 10×KB buffer. All the experiments were carried out at 30° C. in 96-wells or 384-wells black-bottom microplates in polypropylene (Greiner Bio-One, Belgium) and with orbital agitation (1500 rpm). The sensorgrams obtained were fitted globally to a 1:1 model to derive the rate constants for association (kon) and dissociation (koff) and the equilibrium dissociation constant (KD=koff/kon). […] were carried out. The error on KD was calculated using the following equation: […]

T1 sequence (P00772 27-266): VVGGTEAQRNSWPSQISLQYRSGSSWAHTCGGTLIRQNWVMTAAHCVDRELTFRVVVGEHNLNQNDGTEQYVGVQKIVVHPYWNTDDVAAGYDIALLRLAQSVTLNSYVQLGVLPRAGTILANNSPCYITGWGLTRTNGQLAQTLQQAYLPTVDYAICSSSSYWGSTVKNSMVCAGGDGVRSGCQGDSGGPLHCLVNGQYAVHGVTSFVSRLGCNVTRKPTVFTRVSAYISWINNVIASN

B1: NbE201: anti-hNE ISVD (VHH/nanobody) from immunized lama, amino acid sequence SEQ ID NO: 4 (protein)
VHH: QVQLQESGGGLVQAGGSLRLSCVVPGRTISLYRMGWFRQAPGKEREFVAGINWSGDMTDYVDSVKGRFTISRDNAKNTVYLEMNSLKPEDTAIYYCTADPKLLPLADSSYGYWGQGTQVTVSS
- binding to pPE by BLI [1]: does not bind to the other proteases
- Cm ([2]; CD): 5.8 M
- m ([2]; CD): 7.7 kJ · mol^−1 M^−1
- ΔG°NU(H2O) ([2]; CD): 10.6 kcal/mol
- Cm ([2]; F (337 nm)): 5.8 M
- m ([2]; F (337 nm)): 6.7 kJ · mol^−1 M^−1
- ΔG°NU(H2O) ([2]; F (337 nm)): 9.32 kcal/mol
- Cm ([2]; F (λmax)): 6.0 M
- m ([2]; F (λmax)): 6.5 kJ · mol^−1 M^−1
- ΔG°NU(H2O) ([2]; F (λmax)): 9.35 kcal/mol
- Cm ([2]; Mean ± SD of the three probes): 5.9 ± 0.1 M
- m ([2]; Mean ± SD of the three probes): 7.0 ± 0.5 kJ · mol^−1 M^−1
- ΔG°NU(H2O) ([2]; Mean ± SD of the three probes): 9.75 ± 0.598 kcal/mol
- binding to hCG by BLI (human cathepsin G (hCG)): does not bind to the other proteases
- affinity for hNE relative to mNE (hNE; hNE vs mNE): about 10 times
- koff (hNE; hNE, BLI): 3.2 ± 0.2 · 10^−3 s^−1
- kon (hNE; hNE, BLI): 2.6 ± 0.9 · 10^6 M^−1 s^−1
